Test [1] concerns the target hIGF-1R-Fc mutant SD008 (S258F) (human) (UniProt P08069). The test can be described thus: SPR, Fab on receptor-Fc held on M13-C06 chip. In general terms: Surface plasmon resonance follows binding to a sensor surface in real time, without labels.
Test [2] has as its target hIGF-1R-Fc mutant SD019 (A739W_I741F) (human) (UniProt P08069). In words: SPR, Fab on receptor-Fc held on M13-C06 chip.

Sequence of hIGF-1R-Fc mutant SD019 (A739W_I741F) (human) (P08069 31-933, stated change not applied): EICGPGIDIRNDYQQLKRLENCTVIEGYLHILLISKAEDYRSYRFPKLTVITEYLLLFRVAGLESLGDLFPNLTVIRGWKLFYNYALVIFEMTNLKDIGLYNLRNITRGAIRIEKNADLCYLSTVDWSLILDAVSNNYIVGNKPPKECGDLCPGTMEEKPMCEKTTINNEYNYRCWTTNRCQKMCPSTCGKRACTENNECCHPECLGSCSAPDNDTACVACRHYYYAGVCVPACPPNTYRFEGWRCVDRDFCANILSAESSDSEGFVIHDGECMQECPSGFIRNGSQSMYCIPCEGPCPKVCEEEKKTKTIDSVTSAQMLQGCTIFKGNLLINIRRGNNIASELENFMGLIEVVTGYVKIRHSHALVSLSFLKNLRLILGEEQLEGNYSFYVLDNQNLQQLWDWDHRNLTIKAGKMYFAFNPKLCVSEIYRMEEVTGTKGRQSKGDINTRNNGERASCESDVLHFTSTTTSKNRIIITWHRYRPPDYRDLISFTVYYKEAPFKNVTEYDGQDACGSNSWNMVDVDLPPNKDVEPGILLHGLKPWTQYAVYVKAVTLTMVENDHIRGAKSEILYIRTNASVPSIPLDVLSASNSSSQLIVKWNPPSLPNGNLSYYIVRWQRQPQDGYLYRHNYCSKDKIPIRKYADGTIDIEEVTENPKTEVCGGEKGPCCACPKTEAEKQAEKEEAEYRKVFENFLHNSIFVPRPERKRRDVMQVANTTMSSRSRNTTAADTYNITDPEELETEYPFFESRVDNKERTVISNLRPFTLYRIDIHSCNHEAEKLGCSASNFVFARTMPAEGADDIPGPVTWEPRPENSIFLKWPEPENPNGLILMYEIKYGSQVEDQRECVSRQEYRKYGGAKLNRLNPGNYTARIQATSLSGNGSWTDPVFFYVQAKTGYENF
Sequence of hIGF-1R-Fc mutant SD008 (S258F) (human) (P08069 31-933, stated change not applied): as above

B1: M13-C06 Fab (Fab, V domains shown)
VH: EVQLLESGGGLVQPGGSLRLSCAASGFTFSIYRMQWVRQAPGKGLEWVSGISPSGGTTWYADSVKGRFTISRDNSKNTLYLQMNSLRAEDTAVYYCARWSGGSGYAFDIWGQGTMVTVSS
VL: DIQMTQSPLSLSASVGDRVTITCQASRDIRNYLNWYQQKPGKAPKLLIYDASSLQTGVPSRFGGSGSGTDFSFTIGSLQPEDIATYYCQQFDSLPHTFGQGTKLEIK
On to B1, for which the Biacore Relative RUmax in test [1] is 1.5; in test [2], 1.9.

The values above are taken from patent publication US20070243194A1.
